Some results are limits rather than exact numbers.

Data set [1] addresses FOXO1 (FLAG-tagged, transfected) (Homo sapiens) (UniProt Q12778). As to the kind of experiment: cell_activity. Particulars: 3xIRS-LUC in primary rat adipocytes, data not shown.
Data set [2] deals with T1, FOXO1 (FLAG-tagged, full-length) (Homo sapiens, UniProt Q12778 SEQ:126-780).
T1 chain: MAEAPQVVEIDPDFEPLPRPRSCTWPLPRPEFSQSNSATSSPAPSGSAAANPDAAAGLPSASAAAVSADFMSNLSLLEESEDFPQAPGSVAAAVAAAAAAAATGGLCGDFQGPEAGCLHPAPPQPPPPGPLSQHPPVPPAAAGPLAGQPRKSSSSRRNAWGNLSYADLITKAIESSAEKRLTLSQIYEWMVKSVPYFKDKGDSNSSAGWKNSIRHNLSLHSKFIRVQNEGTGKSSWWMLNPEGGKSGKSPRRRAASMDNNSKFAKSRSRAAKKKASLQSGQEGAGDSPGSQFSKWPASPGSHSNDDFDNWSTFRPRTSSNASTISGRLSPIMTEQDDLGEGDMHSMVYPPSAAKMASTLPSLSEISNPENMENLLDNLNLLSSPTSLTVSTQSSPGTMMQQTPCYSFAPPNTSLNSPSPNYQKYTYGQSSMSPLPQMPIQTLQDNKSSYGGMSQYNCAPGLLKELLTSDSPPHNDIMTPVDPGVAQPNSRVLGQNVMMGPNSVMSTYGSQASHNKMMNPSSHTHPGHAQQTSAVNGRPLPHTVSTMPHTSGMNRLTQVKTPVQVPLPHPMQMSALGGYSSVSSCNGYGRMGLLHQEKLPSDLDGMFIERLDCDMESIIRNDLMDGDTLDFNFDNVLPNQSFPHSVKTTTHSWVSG
Nature of the data set: EMSA; competed by 100x and 200x unlabeled probe; supershift with anti-FLAG and anti-FOXO1 H-128, not N-18; 50 mM KCl, 1 mM EDTA, pH 7.9, poly(dI-dC), 25 C. To be noted: tags: FLAG; TnT reticulocyte lysate; label: 32P. The procedure:
(vi) In vitro Translation and Electrophoretic Mobility Shift Assay (EMSA)—In vitro translation of FOXO1 proteins and EMSA studies were performed as described (Armoni et al., 2003). The TnT SP6/T7-coupled reticulocyte lysate system (Promega, Madison Wis.) was used to generate in vitro translated FLAG-tagged FOXO1 proteins from the corresponding cDNA, and the resulting protein lysate was used in EMSA. Protein expression was confirmed by SDS-PAGE, followed by phosphorimaging analysis of proteins translated in the presence of ³⁵S-methionine (cell labeling grade; Amersham, Buckinghamshire, UK). In vitro translation reactions generated sufficient protein to use in EMSA studies. Sense and antisense PPARγ promoter-derived oligonucleotides were synthesized that correspond to bp 270-310 of hG2-587 (sense: […] TGGGT […]) (SEQ ID NO: 4); these were annealed and end-labeled with γ-³²P-ATP (6000 Ci/mmol; Amersham, Buckinghamshire, UK) in the presence of polynucleotide kinase. Protein-DNA binding reactions were assembled in a total volume of 20 μl, which included 4 μl of the in vitro translated FOXO1 lysate, radiolabeled probe (˜75,000 cpm), and 4 μg of poly(dI-dC) in a buffer containing 10 mM HEPES (pH 7.9), 1 mM dithiothreitol, 1 mM EDTA, 4% Ficoll, and 50 mM KCl. […] Gels were fixed in 10% acetic acid for 15 min, dried, and analyzed by phosphorimaging.

Take “3xIRS (three insulin response element repeats) in pGL2-LUC”: the activity (fold activation) in data set [1] is below 8.5.

B1: hPPARγ2 promoter bp 270-310 (dsDNA)
DNA 1: GACACTGAACATGTGGGTCACCGGCGAGACAGTGTGGCAA
DNA 2: TTGCCACACTGTCTCGCCGGTGACCCACATGTTCAGTGTC
Turning to B1, the binding result in data set [2] is “binds”.

(Values after US20080248995, “Modulation of PPARgamma2 gene promoter by FOXO1” (Technion Research and Development Foundation Ltd., published 2008).)
